# Publication doi:10.1101/2021.07.03.450947, “The pore conformation of lymphocyte perforin” (bioRxiv, 2021)
# B1: TMH1-lock mutant of perforin (A144C-W373C) (natural protein, mouse, UniProt P10820 21-554, looked up)
# chain: PCYTATRSECKQKHKFVPGVWMAGEGMDVTTLRRSGSFPVNTQRFLRPDRTCTLCKNSLMRDATQRLPVAITHWRPHSSHCQRNVAAAKVHSTEGVAREAAANINNDWRVGLDVNPRPEANMRCSVAGSHSKVANFAAEKTYQDQYNFNSDTVECRMYSFRLVQKPPLHLDFKKALRALPRNFNSSTEHAYHRLISSYGTHFITAVDLGGRISVLTALRTCQLTLNGLTADEVGDCLNVEAQVSIGAQASVSSEYKACEEKKKQHKMATSFHQTYRERHVEVLGGPLDSTHDLLFGNQATPEQFSTWTASLPSNPGLVDYSLEPLHTLLEEQNPKREALRQAISHYIMSRARCQNCSRPCRSGQHKSSHDSCQCECQDSKVTNQDCCPRQRGLAHLVVSNFRAEHLWGDYTTATDAYLKVFFGGQEFRTGVVWNNNNPRWTDKMDFENVLLSTGGPLRVQVWDADYGWDDDLLGSCDRSPHSGFHEVTCELNHGRVKFSYHAKCLPHLTGGTCLEYAPQGLLGDPPGNRSGAVW
# modifications: engineered disulphide bond between A144C and W373C
# notes: perforin, mouse, with the engineered disulphide A144C-W373C that tethers TMH1 to the core of the MACPF domain; also called A144C-W373C perforin; source: baculovirus/insect cell system, purified from the supernatant
# Biological target: the molecule itself
# Assay: cryo-electron tomography; prepores on liposomes (PC, cholesterol, biotinyl PE 6:3:1) held on streptavidin grids; 20 mM HEPES pH 7.5, 150 mM NaCl, 5 mM CaCl2; 5-10 min at 37°C; protein to lipid about 1:10,000
protein,measurement,value
B1,binding result,binds
